The values that follow come from the DeepSol protein solubility set.

The nature of this data set: soluble on expression in E. coli; label from the status in PepcDB or PDB records.
As to “MEKVYGLIGFPVEHSLSPLMHNDAFARLGIPARYHLFSVEPGQVGAAIAGVRALGIAGVNVTIPHKLAVIPFLDEVDEHARRIGAVNTIINNDGRLVGYNTDGLGYVQALEEEMNITLDGKRILVIGAGGGARGIYFSLLSTAAERIDMANRTVEKAERLVREGDERRSAYFSLAEAETRLAEYDIIINTTSVGMHPRVEVQPLSLERLRPGVIVSDIIYNPLETKWLKEAKARGARVQNGVGMLVYQGALAFEKWTGQWPDVNRMKQLVIEALRR”, the “soluble on expression in E. coli” value is listed as “soluble”.

As for “SDNLSSEEIQQRAHQITDESLESTRRILGLAIESQDAGIKTITMLDEQKEQLNRIEEGLDQINKDMRETEKTLTELNKCCGLCVCPCNRTKNFESGKAYKTTWGDGGENSPCNVVSKQPGPVTNGQLQQPTTGAASGGYIKRITNDAREDEMEENLTQVGSILGNLKDMALNIGNEIDAQNPQIKRITDKADTNRDRIDIANARAKKLIDS”, the “soluble on expression in E. coli” value is reported as “soluble”. The entry for “SNAMSVQTIERLQDYLLPEWVSIFDIADFSGRMLRIRGDIRPALLRLASRLAELLNESPGPRPWYPHVASHMRRRVNPPPETWLALGPEKRGYKSYAHSGVFIGGRGLSVRFILKDEAIEERKNLGRWMSRSGPAFEQWKKKVGDLRDFGPVHDDPMADPPKVEWDPRVFGERLGSLKSASLDIGFRVTFDTSLAGIVKTIRTFDLLYAEAEKGS” is “soluble”; for “MGSDKIHHHHHHMDVIFSIFLETFGDPIGQQPVPPAAVDHYQGKLPNRLLEYWQDHGWCGYGGGLFWLVNPQEYQGVVASWLAGTHFEACDTYHLIARSAFGDLYLWGEKTGSVLTIAAYHSRYLDGAHSSGDEERDNKIHGLLMWLMTECVYFDDLFEPARERLGTLGSDEMYGFVPALMLGGPDSLERLEKLKAVEHLVLLSQLSELEPYELTGEEDE” it is “not soluble”; for “KNASVITVGNEILKGRTVNTNAAFIGNFLTYHGYQVRRGFVVMDDLDEIGWAFRVALEVSDLVVSSGGLGPTFDDMTVEGFAKCIGQDLRIDEDALAMIKKKYGQADLTPQRLKMAKIPPSCRPIENPVGTAPGLICAVGGKKVIILPGVPKEMEALLKAMEKDIIIPD” it is “soluble”. With “MKEKVVSLAQDLIRRPSISPNDEGCQQIIAERLEKLGFQIEWMPFNDTLNLWAKHGTSEPVIAFAGHTDVVPTGDENQWSSPPFSAEIIDGMLYGRGAADMKGSLAAMIVAAEEYVKANPNHKGTIALLITSDEEATAKDGTIHVVETLMARDEKITYCMVGEPSSAKNLGDVVKNGRRGSITGNLYIQGIQGHVAYPHLAENPIHKAALFLQELTTYQWDKGNEFFPPTSLQIANIHAGTGSNNVIPAELYIQFNLRYCTEVTDEIIKQKVAEMLEKHNLKYRIEWNLSGKPFLTKPGKLLDSITSAIEETIGITPKAETGGGTSDGRFIALMGAEVVEFGPLNSTIHKVNECVSVEDLGKCGEIYHKMLVNLLDS” the entry was “soluble”; with “MHCSLYTRFNVENAGGDFSVGGARVCFRIPENPCSPRPAVAGRANPLPPVADFGMKEVRTKKKKHMTNDVNGMKKKCGRPALGRTRKLTRGVTVKFSPVSYEALRFRAGKSGRSLAVYIREAALAATVTARHTPEENALLRSLAGMANNLNQLTKLSHQTGFYRTRLLIEGLLGKLKRIMDDYRPKGG”, “not soluble”.

For “MQLTKLTQEIFDHLYRDISEFRQTFDLPVAAPQTLNSQADTLHTSLAIEELTELAQADNKTEQADAIVDTVYVLMGRLVHLGHAKVEDNLAISYLIDLLLHVAANLNIDFLPCWDEVHSSNMSKVCRSEQEYLDTEKFYAEQGVKLMAVHQGEYIIAKCAEDFISESKTVRQGKVLKSVYYRPANLAALTQ”, the “soluble on expression in E. coli” value is “not soluble”. With “MQAYRGTGKTSQLISQKKPISILILGVDQGIEGRHDRGNSDTMILATMNPEKKEATMTSIPRDLLADIKGDGRGEGKYYMFRANSAYQVGGSKGATRTVKALLNTPVNYYMEVNMKALESMVEALGGVDVNVPFTFTYHTHFRKGKQHLNGKEALDYVRMRKEDPKGDYGRQMRQRQVINDIVRKGMSVNSITNYRKILKVFAKYVKTNLTFDDMLSIAMNYRGCTQNIKSGYIQGHNVWIGAAAMQVASTKELQRVSDLVRSSLGLKQEKLEHHHHHH” the entry was “soluble”; with “PAEIHIITAARGRGKSTLAGKLAEQFAKTEQVILTAHRSSSIQKILQTASINIPFFAPDKLLNLIETKQISADHLLFIDEAACIPLPILQQLGNYFKKVILTTTTQNYEGTGRGFKLKLVKQLHRTTKEWQLFQPLRWSNHDRLEQFTNELLLLN”, “not soluble”. The entry for “GPGSMSAAACSWRHTEWTPYEVLNVPPSAPIGDIRAAFKCMALHTHPDKATVTTSARRASGSGATSCSEFPVSFHIVKEASEMLLDPYLRAAYDAARSQALTREVGAISDTYSLMDDFVRVRMDGDESDRQRVHVYQRECRCGGVYEVAVFPEAPAGSGEDEDVPLTYSARTLRCECDSCSLVVEVVA” is “soluble”; for “MSKRNTQLRRHAISNMVNELGEVSVDELAQKFETSEVTIRKDLASLEKNGQLLRRYGGAIAIPTEVIHEELSSNVSTRKLSLAKAAASLIRDHNRIVIDSGSTTAALIQQLNDKRGLVVMTNSLHVANALNELESEPTLLMTGGTWDTHSESFQGKVAESVLRAYDFDQLFIGADGIDLERGTTTFNELVGLSKVMAEVSREVIVMIESEKIGRKIPNLELAWHQIDVLVTDADIQPEHKVQIEQHGVKVICALEHHHHHH” it is “soluble”.

For “MKFIIKLFPEITIKSQSVRLRFIKILTGNIRNVLKHYDETLAVVRHWDNIEVRAKDENQRLTIRDALTRIPGIHHILEVEDVPFTDMHDIFEKALVQYRDQLDGKTFCVRVKRRGKHDFSSIDVERYVGGGLNQHIESARVKLTNPDVTVHLEVEDDRLLLIKGRYEGIGGFPIGTQEDVLSLISGGFDSGVSSYMLMRRGCRVHYCFFNLGGAAHEIGVRQVAHYLWNRFGSSHRVRFVAINFEPVVGEILEKIDDGQMGVILKRMMVRAASKVAERYGVQALVTGEALGQVSSQTLTNLRLIDNVSDTLILRPLISYDKEHIINLARQIGTEDFARTMPEYCGVISKSPTVKAVKSKIEAEEEKFDFSILDKVVEEANNVDIREIAQQTGQEVVEVETVNDFGPNDVILDIRSVDEQEDKPLKVEGIDVVSLPFYKLSTKFGDLDQNRTWLLWCERGVMSRLQALYLREQGFKNVKVYRP”, the “soluble on expression in E. coli” value was “not soluble”. The entry for “MAVAGAVSGEPLVHWCTQQLRKTFGLDVSEEIIQYVLSIESAEEIREYVTDLLQGNEGKKGQFIEELITKWQKNDQELISDPLQQCFKKDEILDGQKSGDHLKRGRKKGRNRQEVPAFTEPDTTAEVKTPFDLAKAQENSNSVKKKTKFVNLYTREGQDRLAVLLPGRHPCDCLGQKHKLINNCLICGRIVCEQEGSGPCLFCGTLVCTHEEQDILQRDSNKSQKLLKKLMSGVENSGKVDISTKDLLPHQELRIKSGLEKAIKHKDKLLEFDRTSIRRTQVIDDESDYFASDSNQWLSKLERETLQKREEELRELRHASRLSKKVTIDFAGRKILEEENSLAEYHSRLDETIQAIANGTLNQPLTKLDRSSEEPLGVLVNPNMYQSPPQWVDHTGAASQKKAFRSSGFGLEFNSFQHQLRIQDQEFQEGFDGGWCLSVHQPWASLLVRGIKRVEGRSWYTPHRGRLWIAATAKKPSPQEVSELQATYRLLRGKDVEFPNDYPSGCLLGCVDLIDCLSQKQFKEQFPDISQESDSPFVFICKNPQEMVVKFPIKGNPKIWKLDSKIHQGAKKGLMKQNKAV” is “soluble”; for “SGDFTWSSNLVFSWNKNEIKDLYGDGQNDLGNRWFLGHPIGVIYDYTMVGIWQEDEIARGDHLNWDPIAEAGDVKLADISGPDGVPDGKIDDNDRTIKGQTTPKWIGGLTNTFTYKDFTLSIFIQTTQGLKKNNSLIGMAGDEMGRRNTTTEIGYWTPENKSNEWRSLRKNSNKHGYGFPCDASYTRIKDITLSYTFPQRMIQKMGIGGLQLYVSGRNLFTFTDWVGWDPEARQVARGNSSWDSTRGETVYDSSNYPMTKSCVFGVNLTF” it is “not soluble”; for “AHHHHHHGSKVYAPATIANFGPGFDVFGLAIETPRDTVIAKESDDFRIEVEGYKVPENDENVALVAAKALFKLVGEEGGIYLKLKKGIRPKSGLGSSGASSIAGAVAAARILGVEDDEIIIRAALEGERKASGSPHGDNVVPSYYGNFTIVESLNPLRVHNIEVDFKVVVILPSVEVPTSEARKVLPKKVPLKDAVKNIALASSLVLALKEGNLEEVGRLLEDHLALPYRLSLVPWFPKVKEAAKEAGAYGVMISGSGPAVFALGENLKEIGKAMKEAFESFGIEAEYWVTKVGRGAKWC” it is “not soluble”. With “MKQGTMNILFFVLKTKLLKNGEAPVLMRITINGDYDDVRIQRSVPLNLWNAAKGCSKGRDRASVALNAYIAELHARALEKHKELVLEQALITPKLILKRVFGKDTEMRTLLGTMREGIKEMETLAGIDYSPVTINRYKNVVKKLQLLIPSYYGKEDVTFHELTPEFIRAFDIYLKTEAGLCRNTIVRYMKCFKKFTNMALAKEWMRKNPFYGYKMEQDETDPVFLTYDELQTVMKKKFTIPRLELVRDVFVFACFTGLAFSDVASLNKENLVQDNLGDWWIRKGRVKLEHRRKASSISNIPLLPVPLAILEKYKEHPTCIKKGCCLPVMCNQKMNSYLKEIADFCGIKKNLTTHVARHTFGTTVTLANNVPLQDVSVMLGHASTRMTQHYARVMNSSLKEAMNTVKERLAQ” the entry was “not soluble”; with “SENLYFQGSASATCERCKGGFAPAEKIVNSNGELYHEQCFVCAQCFQQFPEGLFYEFEGRKYCEHDFQMLFA”, “soluble”. With “MNTGFANPSAKPDDPTDPRARRDHGGGLDGAMRRYGGQRADWIDLSTGINPLPYPVGTLLPEDWTALPDHGAFGELIRAARAFWHLPEAAAVLPAPGASALIARIPALADPARVRITQPTYNEHAAAFTAHGWQVVADGPAEARVIVHPNNPDGRIWSEAEAEGALCVIDESFGDVAPETSLAHLAARPGTVVLKSFGKFWGLAGLRLGFAVALPETIARLNDLTGPWAVSGPALRIGTRALSDTAWAEETRIRLAQEAARLDTLMSAGGVQVLGGTDLFRLYQVDDAAAWQDRLARARIWSRIFPYSDRFLRLGLPPAEGWDRLESAL” the entry was “not soluble”; with “MGSDKIHHHHHHMETKINSKALKAEALRLGFSACGIAPAEPIDQAHQNALKMWLDADRQAGMTYMANHFDKRCDPALLVEGTRCVVSVALNYYPATRIPDEEYQFAWYAYGKDYHDLMREKLATLFRFIQESDVPELNGRMFCDTAPVPERYWAWRAGLGWIGKNTQLIIPHAGSTFFLGELFLNTEADTYDRPQPNRCGRCNRCLQACPTKALETPYSLNAHRCLSYLTIENKSEIPDSIAPFMGNRVYGCDECQKACPWNRFATPCRTPELQPSPEFMNMKKEDWKQLSEEKYRALFKGSAVKRAKYSGLIRNIRQMED”, “not soluble”; with “MGSDKIHHHHHHMTIQKHFPTVEMADIHFELIGGLSSQSWRIRGPGIEWLARRQSPVERKMGVDRQREFALLRQMSAVGLAPRPLLWRDGWLIVEWVPGRIATSDEFLMMLANGEVARVLSQLHRQPRSGHPLNFKILFAQHWQLMDPCRRSPALLRAHHHFQRAALPTPLALVPLHLDVHAENLLITPQGTMLIDWEYASDGDIAFELAFIVRASQMDSVAQTYFLQSYQRHRRGFSVSRLQQQMMQWFPWVDYLVLMWFEVRWQQTKNLEFLAEIPALRHRLQLG”, “not soluble”. As to “NKFNTWNDSRGNYWSDYEGSDENGDGIGDSAYAVNPEAGSMDYMPLMEYLHSSPVLPTARFTSDITEGFAPLSVRFKDFSENATSRLWMFGDGNTSDSPSPLHTFFNEGEYIVSLIVSNENDSDSASVTIRA”, the “soluble on expression in E. coli” value is listed as “soluble”.
